Experimental data taken from patent US20240150805A1, “Glycosylated Opioids” (River Stone Biotech ApS, priority 2021, published 2024).

Assays:
[1] = In vitro glucosylation of oripavine and nororipavine by purified UGTs; type: biochemical; conditions: for specificity for nororipavine compared to oripavine: 72UGTs, test setup of example 3, FIG. 8; for preference for nororipavine glucosylation compared to oripavine glucosylation: purified UGT, 500 μM substrate, overnight at 30° C., HPLC
Procedure: Glucosylation samples of a 20 μL total reaction volume for each UGT to be tested were prepared in 96-well microtiter plates as follows:
The microtiter plate was sealed with an adhesive seal, spun shortly and the glucosylation samples were incubated overnight at 30° C. After incubation, glucosylation reaction was terminated by adding 3 volumes (60 μL) of ice-cold 100% methanol the reaction volume and mixing well, followed by centrifugation of the plate at 3000 rpm for 5 min at 4° C. and analysis by HPLC.
The 72UGTs of Table 5 were tested in vitro to using the test setup of example 3 identify those having having specificity toward nororipavine.

[2] = Effect of N-terminal tags on UGT activity in yeast bioconversion of oripavine; type: cell-based, Saccharomyces cerevisiae; conditions: UGT with solubility tag
[3] = Test of additional UGT (SEQ ID NO: 170) in yeast fed with oripavine; type: cell-based, Saccharomyces cerevisiae; conditions: Delft pH 5.5 media, 2 mM oripavine, 3 days, 30 degrees Celsius
Procedure: An additional UGT (SEQ ID NO: 170) with 62% identity at the protein level to SEQ ID NO: 96 was also tested in a similar manner as above. Briefly, cells were grown overnight in SC-HLU and used to inoculate Delft pH 5.5 media containing 2 mM oripavine. After growth with shaking at 30 degrees Celsius for 3 days, total extracts were obtained by mixing the cultures with an equal volume of 0.2% formic acid and heating at 80 degrees Celsius for 10 minutes. After centrifugation, the supernatant was diluted in 0.1% formic acid for quantification by HPLC as described in the Materials and Methods. UGT SEQ ID NO: 170 was active for glucosylation on both oripavine and nororipavine however it produced 41% of the noropavine-glu relative to SEQ ID NO: 96 and 35% of oripavine-glu relative to SEQ ID NO: 96.

Molecule	preference for nororipavine glucosylation compared to oripavine glucosylation [1]	amounts of glucosylated nororipavine compared to the untagged UGT alone [2]	other results
KAF3968553: subfamily 72 UGT, sequence homolog of Qs72S_1 (protein, listed as Castanea mollissima) MEQKPHIALLPSPGMGHLIPLVEFAKLFVLHHDFRITCIIPVLGSPSKAMKAVLQALPTTIDHVFLPPVILEEEEIKGLKFEVQTILTLTRSLPPLRDVLKSTRFSAFVVDPFGIDALDIAKELKISPYIFFPTNAFVLSLMFHLPKLDETVSCEYRDLPEPLKLPGCIPIHGRDLIEPVQDRTSELYKMFLRNVKRFRLAEGIIVNTFMELEGSAIKALLDEEAKNLPLYPIGPIQSGSSNLQVDKSESDCLRWLDNQPRGSVLFVCFGSGGTLSYDQTNELALGLELSGQKFLWVVRTPDNESADAAYLSDQTLDNNPLAFLPKGFVERTEGQGLAVPSWAPQAQVLSHGSTGGFLTHCGWNSTLESIMQGIPLIAWPLYAEQKMNAPLLAEDLKVALRPKTNKNGLIDREEIAKVVKGLMVGEEGKKVHNRMKDIKIAAEKALSADGSSTKTLSELASQWKNHPGF	particularly strong preference for Nororipavine glucosylation		specificity for nororipavine compared to oripavine [1]: particularly high specificity
PWA70520: subfamily 71 UGT (protein, listed as Artemisia annua) MTTLELVFIPSPGAGHLPPTVELAKLLLDHDQRLSVTIIIMNLPFEAEQVTETPISTPRLNFIYVANEDSSKDLISPHTFMSAFLEHQKPKLKNIIRDITESDSVRLVGFIVDMFCIAMIDVANEFGVPTYVYFTSSASALGLMFHLQAKCDDEEYDVTDLKDSDLMLSIPSYVKPIPAKLLPSVLFDKQGGSKMFIDLAKKFRESEGIIINSFQELESHGLEFLIKGDPNIPPVFPVGPILNLKNTKNDGKTTDIMAWLDNQPKSSVVFLCFGSMGSFGEKQVKEIAVALERSEHRFLWSLRRPPSKEVMRLPEEYENFKEVLPEGFLECTSNLGKVIGWAPQTSVLSHPSLGGFVSHCGWNSTLESIWFGVPVAAWPLYAEQQINAFQLVMELGIAAEIKIDYKSNIGPGGGSNEMLVKADEIESGIRRLMNDDDMRRNVKEMKHMSRLTVTEGGSSYASIKRFIELVITNT	preference for glucosylation of nororipavine		
SEQ ID NO: 212: UGT fused N-terminally to a solubility tag (protein) METHINLKVSDGSSEIFFKIKKTTPLRRLMEAFAKRQGKEMDSLRFLYDGIRIQADQTPEDLDMEDNDIIEAHREQIGGGGGGSEQKPHIALLPSPGMGHLIPLVEFAKQFVLHHDFHITCIIPVLGSPSKAMKAVLQALPTTIDHVFLPPVILEEEEIKGLKFEVQTILTLTRSLPPLREVLKTTRFSAFVVDPFGIDALDIAKELNISPYIFFPSNAFALSLIFHLPKLDETVSCEYRDLPEPLKLPGCIPIHGRDLIEPVQDRTSELYKMFLRNAKRFRLAEGIIVNTFMELEGSAIKALLDEEAKNLPLYPIGPIQSGSSNLQVDKSVSDCLRWLDNQPHGSVLFVCFGSGGTLSYDQTNELALGLELSGQKFLWVVRTPNNESADAAYLSDQILDNNPLDFLPKGFVERTEGQGLAVPSWAPQAQVLSHGSTGGFLTHCGWNSTLESIMQGIPLIAWPLYAEQKMNAPLLAEDLKVALRPKTNKSGLIDQEEIAKVVKGLMIGEEGKKVYNRMKDIKMAAEKALSADGSSTKALSELASQWKNHPGF		higher	
XP_023875154: subfamily 72 UGT, sequence homolog of Qs72S_1 (protein, Quercus suber) MLSKMEQKPHIALLPSLGMGHLIPLVEFAKQFVLHHDFHITCIIPVLGSPSKAMKAVLQALPTAIDHVFLPPVKLEEEEIKGLKFEVQTILTLTRSLPPLREVLKSTRFSAFVVDPFGIDALDIAKELNISPYIFFPTNAFALSLIFHLPKLDETVSCEYRDLPEPLKLPGCIPIHGRDLLEPVQDRTSELYKMFLRNAKRFRLAEGIIVNTFMELEGSAIKALLDEEAKNLPLYPIGPIQSGSSNQVDKSESDCLRWLDNQPHGSVLFVCFGSGGTLSYDQTNELALGLELSGQKFLWVVRTPNNESADAAYLSDQTLNNNLLAFLPKGFVERTEGQGLAVPSWAPQAQVLSHGSTGGFLTHCGWNSTLESIMQGIPLIAWPLYAEQKMNAPLLAEDLKVALRPKTNKNGLIDREEIAKVVKGLMIGEEGKKVYNRMKDIKMAAEKALSADGSSTKALSELASQWKNHPGF	particularly strong preference for Nororipavine glucosylation		specificity for nororipavine compared to oripavine [1]: particularly high specificity
XP_023914549: subfamily 72 UGT, sequence homolog of Qs72S_1 (protein, Quercus suber) MEQKPHIALLPSPGMGHLIPLVEFAKQFVLHHDFRITCIVPVLGSPSKAMKAVLQALPTTIDHVFLPPVKLEEEEIRGLKFEVQTILTLTRSLPPLREVLKSTRFSAFVVDPFGIDALDIAKELNISPYIFFPTNAFALSLIFHLPKLDKTVSCEYRDLPEPLKLPGCIPIHGRDLSEPVQDRTSELYKMFLRNAKRFRLAEGIIVNTFMELERSAIKALLDEEAKNLPLYPIGPIQSGSSNQVDKSESDCLRWLENQPHGSVLFVCFGSGGTLSYDQTNELALGLELSGQKFLWVVRTPNNESADAAYLSDQTLDNNPLAFLPKGFVERTEGQGLAVPSWAPQAQVLSHGSTGGFLTHCGWNSILESVMQGIPLIAWPLYAEQKMNAVLLAEDLKVALRPKTNKNGLIDREEIAKVVKGLMVGEEGKKVRNRMKDIKIAAVKALSADGSSTKALSELASQWKNHPGF	particularly strong preference for Nororipavine glucosylation		
SEQ ID NO: 170: additional UGT with 62% identity at the protein level to SEQ ID NO: 96 (protein) MEQTPHIAIMPTQGMGHLIPLVEFAKRLVLTHNFSATFLIPTDPGRLPAAQKSFLDSLPAGINYVLLPPVNFDDLPDDVGSETRISLAVVRSLPSLRDALKSLVSGFRVVALVVDLFGTDAFDVAAEFNVSPYIFYPSTAMALSLFLHLPKLDESVSCEYRDLPEPVQIPGCIPVHGKDLLDPVQDRKNGAYKWLLHQVKRYRLAEGIMVNSFKELEGGAIKALQEEEPGKPPVYPIGPLVQMDGADEKSECLRWLDDQPRGSVLFVSFGSGGTLSYDQLNELALGLEMSEQRFLWVVRSPNNKSANATYFSVNSQNDPFAFLPKGFLERTKGYGLVVPSWAPQVRVLSHGSTGGFLTHCGWNSTLESVVNGVPLIAWPFYAEQKMNAVMLTEDLKVALRLRIGENGIIGRAEIAKVVKGLMEGEEGKQIRSRMIDLKDAAARALGEDGDSTKSLAELAQKWKNKIIS			noropavine-glu produced relative to SEQ ID NO: 96 [3]: 41%; oripavine-glu produced relative to SEQ ID NO: 96 [3]: 35%
SEQ ID NO: 214: UGT fused N-terminally to a solubility tag (protein) METHINLKVSDGSSEIFFKIKKTTPLRRLMEAFAKRQGKEMDSLRFLYDGIRIQADQTPEDLDMEDNDIIEAHREQIGGGGGGSGGGGSGGGGSEQKPHIALLPSPGMGHLIPLVEFAKQFVLHHDFHITCIIPVLGSPSKAMKAVLQALPTTIDHVFLPPVILEEEEIKGLKFEVQTILTLTRSLPPLREVLKTTRFSAFVVDPFGIDALDIAKELNISPYIFFPSNAFALSLIFHLPKLDETVSCEYRDLPEPLKLPGCIPIHGRDLIEPVQDRTSELYKMFLRNAKRFRLAEGIIVNTFMELEGSAIKALLDEEAKNLPLYPIGPIQSGSSNLQVDKSVSDCLRWLDNQPHGSVLFVCFGSGGTLSYDQTNELALGLELSGQKFLWVVRTPNNESADAAYLSDQILDNNPLDFLPKGFVERTEGQGLAVPSWAPQAQVLSHGSTGGFLTHCGWNSTLESIMQGIPLIAWPLYAEQKMNAPLLAEDLKVALRPKTNKSGLIDQEEIAKVVKGLMIGEEGKKVYNRMKDIKMAAEKALSADGSSTKALSELASQWKNHPGF		higher	
SEQ ID NO: 204: UGT fused N-terminally to a solubility tag (protein) MKAQYEDGKQYTTLEKPVAGAPQVLEFFSFFCPHCYQFEEVLHISDNVKKKLPEGVKMTKYHVNFMGGDLGKDLTQAWAVAMALGVEDKVTVPLFEGVQKTQTIRSASDIRDVFINAGIKGEEYDAAWNSFVVKSLVAQQEKAAADVQLRGVPAMFVNGKYQLNPQGMDTSNMDVFVQQYADTVKYLSEKKGGGGSEQKPHIALLPSPGMGHLIPLVEFAKQFVLHHDFHITCIIPVLGSPSKAMKAVLQALPTTIDHVFLPPVILEEEEIKGLKFEVQTILTLTRSLPPLREVLKTTRFSAFVVDPFGIDALDIAKELNISPYIFFPSNAFALSLIFHLPKLDETVSCEYRDLPEPLKLPGCIPIHGRDLIEPVQDRTSELYKMFLRNAKRFRLAEGIIVNTFMELEGSAIKALLDEEAKNLPLYPIGPIQSGSSNLQVDKSVSDCLRWLDNQPHGSVLFVCFGSGGTLSYDQTNELALGLELSGQKFLWVVRTPNNESADAAYLSDQILDNNPLDFLPKGFVERTEGQGLAVPSWAPQAQVLSHGSTGGFLTHCGWNSTLESIMQGIPLIAWPLYAEQKMNAPLLAEDLKVALRPKTNKSGLIDQEEIAKVVKGLMIGEEGKKVYNRMKDIKMAAEKALSADGSSTKALSELASQWKNHPGF		higher	
